The labels stand for the following.
B1: hActRIIB-hFc (human ActRIIB ECD linked to human IgG1 Fc) (Fc fusion, not shown: a dimerising Fc or GST)
chain: SGRGEAETRECIYYNANWELERTNQSGLERCEGEQDKRLHCYASWRNSSGTIELVKKGCWLDDFNCYDRQECVATEENPQVYFCCCEGNFCNERFTHLPEAGGPEVTYEPPPTAPTLLT
B2: Ab-17G05 (antibody, V domains shown)
VH: EVQLLESGGGLVQPGGSLRLSCAASGFTFSNYWMGWVRQAPGKGLEWVSYIRSSGGLTHYADSVKGRFTISRDNSKNTLYLQMNSLRAEDTATYYCAKGLYSFDYWGQGTLVTVSS
VL: DIQMTQSPSSLSASVGDRVTITCRASQGVNNFLAWYQQKPGKAPRLLIYAASTLQSGVPSRFSGSGSGTDFTLSISNLQPEDFATYYCQQSYSTPRGFGQGTKVEIK
notes: also called antibody 17G05; Ab-R17G05
B3: Fab-17G01 (Fab, V domains shown)
VH: B2 VH with W33Q, G35D, R52G, S53P, L57R, H59K, K98R
VL: DIQMTQSPSSLSASVGDRVTITCRAGQSISNFLNWYQHTPGTGPKVLIYAASSLQSGVPSRFSGSGSGTEFTLTITNLQPEDFATYYCQQSYSTPFTFGPGTKVDIK
notes: Soluble Fab from Dyax's Fab310 library; the Fab constant domains are not; also called sFab 17G01
B4: Fab-17G05 (Fab, V domains shown)
VH: B2 VH
VL: B2 VL
notes: the Fab constant domains are not; also called sFab 17G05; Fab-R17G05
B5: Fab-17A11 (Fab, V domains shown)
VH: EVQLLESGGGLVQPGGSLRLSCAASGFTFSTYAMMWVRQAPGKGLEWVSRIYPSGGTTTYADSVKGRFTISRDNSKNTLYLQMNSLRAEDTAVYYCARGSAASSYWGQGTLVTVSS
VL: DIQMTQSPSFLSASVGDRVTITCRASQGISNYLAWYQQKPGKAPKLLIYAASTLQSGVPSRFSGSGSGTEFTLTISSLQPEDIGTYYCQQLISYPFTFGPGTKVDIK
notes: Soluble Fab from Dyax's Fab310 library; the Fab constant domains are not; also called sFab 17A11
B6: Fab-17C09 (Fab, V domains shown)
VH: EVQLLESGGGLVQPGGSLRLSCAASGFTFSQYNMTWVRQAPGKGLEWVSSIYSSGGVTPYADSVKGRFTISRDNSKNTLYLQMNSLRAEDTAVYYCARGRLLFDYWGQGTLVTVSS
VL: DIQMTQSPSSLSASVGDRVTITCRASQSISNYLNWYQQRPGKPPKLLIYAASSLQSGVPSRFSGSGSGTDFSLSISILQPEDFATYYCQQGYTAPRSFGQGTKVEIK
notes: Soluble Fab from Dyax's Fab310 library; the Fab constant domains are not; also called sFab 17C09

In one test the target is T1, activin A (UniProt P08476 311-426).
T1 sequence (looked up): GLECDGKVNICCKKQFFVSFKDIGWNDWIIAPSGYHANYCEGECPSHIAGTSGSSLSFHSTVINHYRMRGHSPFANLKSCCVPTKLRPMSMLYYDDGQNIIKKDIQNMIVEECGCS
Nature of the test: cell-based or functional assay.

Test [1] deals with T2, hActRIIB-mFc (human; mouse, UniProt Q13705 19-137).
T2 construct: not shown: murine IgG2a Fc (captured by antibody against murine IgG2a Fc)
T2 sequence: B1 chain
Nature of the test: SPR (BIACORE), hActRIIB-mFc captured on anti-murine IgG2a Fc chip, antibody in solution, 25 C. Here is the method:
(§1) FIG. 2 depicts kinetic characterization of Ab-17G05 binding to hActRIIB-mFc as determined by BIACORE™-based analysis at 25° C. (A) or 37° C. (B). hActRIIB-mFc was captured on a chip with covalently immobilized antibody against murine IgG2a Fc and then exposed to Ab-17G05 at concentrations ranging from 0.0195 μg/ml to 5 μg/ml.
(§2) BIACORE™-based analysis was used to characterize binding of Ab-17G05 to ActRIIB. For this analysis, Ab-17G05 was purified from COS-cell-conditioned media by one-step protein G chromatography.
On the technique in general: Surface plasmon resonance follows binding to a sensor surface in real time, without labels.

The target of test [2] is T2, hActRIIB-mFc. Nature of the test: SPR (BIACORE), hActRIIB-mFc captured on anti-murine IgG2a Fc chip, antibody in solution, 37 C. As to the method:
FIG. […] (A) or 37° C. (B). hActRIIB-mFc was captured on a chip with covalently immobilized antibody against murine IgG2a Fc and then exposed to Ab-17G05 at concentrations ranging from 0.0195 μg/ml to 5 μg/ml.
as §2

The target of test [3] is T2, hActRIIB-mFc. Nature of the test: SPR (BIACORE), Ab-17G05 on hActRIIB-mFc compared with Fab-17G05 on hActRIIB-hFc. Here is the method: as §1, §2
For test [4], the target named is B1. Nature of the test: cell-based or functional assay.
Test [5] has as its target B1. Nature of the test: SPR (BIACORE) competition: biotinylated ActRIIB-Fc on streptavidin chip, sFab 40 ug/ml then GDF11 500 ng/ml; competitor GDF11. Here is the method:
Affinity-purified sFabs were also screened in two SPR-based competition assays at Acceleron. The first assay evaluated the effect of sFab pretreatment on binding of GDF11 to immobilized ActRIIB-Fc. […] This signal was compared with a second signal (residual GDF11 binding) resulting from GDF11 binding to immobilized ActRIIB-Fc that had first been exposed to sFab (40 μg/ml).

For test [6], the target named is B1. Nature of the test: SPR (BIACORE), human ActRIIB-hFc, Fab in solution, 25 C.
Test [7] concerns the target B1. Nature of the test: SPR (BIACORE), human ActRIIB-hFc, Fab in solution, 37 C.
Test [8] concerns the target B1. Nature of the test: SPR (BIACORE), hActRIIB-hFc captured on anti-human IgG1 Fc chip, Fab in solution, 25 C. Here is the method: (§3) FIG. 1 depicts kinetic characterization of Fab-17G05 binding to hActRIIB-hFc as determined by BIACORE™-based analysis at 25° C. (A) or 37° C. (B). hActRIIB-hFc was captured on a chip with covalently immobilized antibody against human IgG1 Fc and then exposed to Fab-17G05 at concentrations ranging from 0.0195 μg/ml to 5 μg/ml. RU, response units.

The target of test [9] is B1. Nature of the test: SPR (BIACORE), hActRIIB-hFc captured on anti-human IgG1 Fc chip, Fab in solution, 25 C (values of Example 4 reprinted for comparison). Here is the method: as §3
Test [10] concerns the target B1. Nature of the test: SPR (BIACORE), hActRIIB-hFc captured on anti-human IgG1 Fc chip, Fab in solution, 37 C (values of Example 4 reprinted for comparison). As to the method:
(§4) FIG. […] (A) or 37° C. (B). hActRIIB-hFc was captured on a chip with covalently immobilized antibody against human IgG1 Fc and then exposed to Fab-17G05 at concentrations ranging from 0.0195 μg/ml to 5 μg/ml. RU, response units.

The target in test [11] is B1. Nature of the test: SPR (BIACORE), hActRIIB-hFc captured on anti-human IgG1 Fc chip, Fab in solution, 37 C; 37 C. Here is the method: as §4
Test [12] deals with B1. Nature of the test: SPR (BIACORE), hActRIIB-hFc captured on anti-human IgG1 Fc chip, Fab in solution, 37 C. Here is the method:
as §4

The target of test [13] is B1. Nature of the test: SPR (BIACORE), hActRIIB-hFc captured on anti-human IgG1 Fc chip, Fab in solution, 25 C (values of Example 4 reprinted for comparison); 25 C; Fab values reprinted for comparison with Ab-17G05. Here is the method:
as §3

For test [14], the target named is B1. Nature of the test: SPR (BIACORE), human ActRIIB-hFc, Fab in solution, 25 C; 25 C.

This note sets out measurements from patent US20130108650A1 (ACCELERON PHARMA, published 2013).

Numbering of substitutions follows the chain as printed.

Turning to B1, the “IC50 of inhibition of activin A signaling, A204 reporter gene assay (activin A 5 ng/ml)” value with activin A stood at 0.05 mg/L.
Regarding B2, in the test with hActRIIB-mFc [1], the Kd (as a rule, the constant that tells how readily two partners part at equilibrium) was determined as 0.028 nM; the off-rate constant (koff) (commonly a measure of how fast the partners let go of each other) came out at 2.7e-05 s⁻¹; the on-rate (kon) (in general, the rate constant with which the complex forms) turned out to be 970000 M⁻¹ s⁻¹. In the test with hActRIIB-mFc [2], this molecule displayed a Kd of 0.092 nM, a koff of 0.00014 s⁻¹ and an on-rate (kon) of 1.5e+06 M⁻¹ s⁻¹. In addition, the “fold improvement in off-rate and KD against Fab-17G05” value with hActRIIB-mFc [3] is not below 20 fold. Also, the “IC50 of neutralization, A204 cell-based reporter gene assay (activin A 5 ng/ml plus ActRIIB-Fc 50 ng/ml)” value in test [4] is approximately 0.04 nM.
Regarding B3, in test [5], the “residual GDF11 binding” value was < 50 % of Emax. Besides, in test [6], binding was characterised by a dissociation constant (Kd) of 3.8 nM, the koff was determined as 0.0018 s⁻¹ and the association rate constant (kon) is 460000 M⁻¹ s⁻¹. Moreover, in test [7], the Kd is 21 nM, the koff stood at 0.012 s⁻¹ and the kon stood at 580000 M⁻¹ s⁻¹.
As for B4, in test [5], the “residual GDF11 binding” value was < 50 % of Emax. Besides, the Kd in [8] was 0.55 nM; in test [9] it was 0.55 nM; in test [10] it was 1.9 nM; in test [11] it was 1.9 nM. In addition, the koff in test [8] is 0.00087 s⁻¹; in [9] it was 0.00087 s⁻¹; in test [10], 0.0031 s⁻¹; in test [12] it was 0.0031 s⁻¹. Moreover, the kon was 1.6e+06 M⁻¹ s⁻¹ in test [8], 2.6e+06 M⁻¹ s⁻¹ in test [10], 2.6e+06 M⁻¹ s⁻¹ in [12] and 1.6e+06 M⁻¹ s⁻¹ in test [13]. Also, in test [4], the “IC50 of neutralization, A204 cell-based reporter gene assay (activin A 5 ng/ml plus ActRIIB-Fc 50 ng/ml)” value is approximately 2.6 nM.
Consider B5, for which the “residual GDF11 binding” value in [5] is < 50 % of Emax. For the same molecule, the off-rate (koff) came to 0.00019 s⁻¹ in [6] and 0.014 s⁻¹ in test [7]. The values for the on-rate (kon) in test [6] and in test [7] were 1.2e+06 M⁻¹ s⁻¹ and 1.4e+06 M⁻¹ s⁻¹, respectively. For the same molecule, the equilibrium dissociation constant (Kd) worked out at 1.6 nM in [14] and 9.9 nM in test [7].
In the case of B6, in [5], the “residual GDF11 binding” value was < 50 % of Emax.
